Test results reported in patent US20210403549A1 (YALE UNIVERSITY, published 2021).
Values belong to the binder of their own block, whether it stands above or below them. fluorescein = fluorescein (fluorescent label)

Key:
[1] = target: T1, ALK1-fragment crystallizable region (Fc), wild type ALK1 ectodomain (human, UniProt P37023 22-118); assay: ApoB100 peptide array, fluorescence
T1 construct: also called ALK1-Fc; ALK1^ecto-Fc; not shown: Fc tag
Description: FIG. 6 depicts mapping of ALK1 binding to ApoB100- In order to identify binding sites that mediate the interaction of ALK1 with the core LDL protein, Apo B100, peptide mapping experiments were performed. 4,563 different peptides (15 AA in length overlapped by 14AA) derived from the human ApoB100 sequence were arrayed and incubated with a control-Fc, and ALK1-Fc and binding events measurement by fluorescence. […] The AA sequence of binding for site 1 is SEQ ID NO: 4 QDDCTGDED, site 4 is SEQ ID NO: 5 […] and site 5 is SEQ ID NO: 6 HRDFSAEYEED.

[2] = target: T1, ALK1-fragment crystallizable region …; assay: fluorescence polarization (Fp), recombinant ALK1-Fc and fluorescein labelled peptide
Text: FIG. 8 depicts development of a fluorescence polarization (Fp) assay of ALK1 binding to ApoB100 peptide Site 1. In order to measure binding affinities of ApoB100 to ALK1 and to facilitate screening molecules that block this interaction, a Fp assay was developed using recombinant ALK1-Fc and an HPLC purified fluorescein labelled peptide, -SEQ ID NO: 8 […] with G being an N-terminal linker to fluorescein and the C-terminal L amidated.

[3] = target: T1, ALK1-fragment crystallizable region …; assay: substitution analysis of the 15mer peptide
Text: FIG. 7 depicts structure function analysis of Site 1. Site 1 was interrogated as a major N-terminal binding site for ALK1 on ApoB 100.

[4] = target: T2, low density lipoprotein (LDL) (UniProt P04114 28-4563); assay: SPR, LDL immobilized, Fc-tagged ectodomain as analyte; LDLR ectodomain as analyte
T2 construct: Lipoprotein particle, not a pure protein; also called DiI-LDL (fluorescently labeled)
T2 sequence (P04114 28-4563 limits assumed): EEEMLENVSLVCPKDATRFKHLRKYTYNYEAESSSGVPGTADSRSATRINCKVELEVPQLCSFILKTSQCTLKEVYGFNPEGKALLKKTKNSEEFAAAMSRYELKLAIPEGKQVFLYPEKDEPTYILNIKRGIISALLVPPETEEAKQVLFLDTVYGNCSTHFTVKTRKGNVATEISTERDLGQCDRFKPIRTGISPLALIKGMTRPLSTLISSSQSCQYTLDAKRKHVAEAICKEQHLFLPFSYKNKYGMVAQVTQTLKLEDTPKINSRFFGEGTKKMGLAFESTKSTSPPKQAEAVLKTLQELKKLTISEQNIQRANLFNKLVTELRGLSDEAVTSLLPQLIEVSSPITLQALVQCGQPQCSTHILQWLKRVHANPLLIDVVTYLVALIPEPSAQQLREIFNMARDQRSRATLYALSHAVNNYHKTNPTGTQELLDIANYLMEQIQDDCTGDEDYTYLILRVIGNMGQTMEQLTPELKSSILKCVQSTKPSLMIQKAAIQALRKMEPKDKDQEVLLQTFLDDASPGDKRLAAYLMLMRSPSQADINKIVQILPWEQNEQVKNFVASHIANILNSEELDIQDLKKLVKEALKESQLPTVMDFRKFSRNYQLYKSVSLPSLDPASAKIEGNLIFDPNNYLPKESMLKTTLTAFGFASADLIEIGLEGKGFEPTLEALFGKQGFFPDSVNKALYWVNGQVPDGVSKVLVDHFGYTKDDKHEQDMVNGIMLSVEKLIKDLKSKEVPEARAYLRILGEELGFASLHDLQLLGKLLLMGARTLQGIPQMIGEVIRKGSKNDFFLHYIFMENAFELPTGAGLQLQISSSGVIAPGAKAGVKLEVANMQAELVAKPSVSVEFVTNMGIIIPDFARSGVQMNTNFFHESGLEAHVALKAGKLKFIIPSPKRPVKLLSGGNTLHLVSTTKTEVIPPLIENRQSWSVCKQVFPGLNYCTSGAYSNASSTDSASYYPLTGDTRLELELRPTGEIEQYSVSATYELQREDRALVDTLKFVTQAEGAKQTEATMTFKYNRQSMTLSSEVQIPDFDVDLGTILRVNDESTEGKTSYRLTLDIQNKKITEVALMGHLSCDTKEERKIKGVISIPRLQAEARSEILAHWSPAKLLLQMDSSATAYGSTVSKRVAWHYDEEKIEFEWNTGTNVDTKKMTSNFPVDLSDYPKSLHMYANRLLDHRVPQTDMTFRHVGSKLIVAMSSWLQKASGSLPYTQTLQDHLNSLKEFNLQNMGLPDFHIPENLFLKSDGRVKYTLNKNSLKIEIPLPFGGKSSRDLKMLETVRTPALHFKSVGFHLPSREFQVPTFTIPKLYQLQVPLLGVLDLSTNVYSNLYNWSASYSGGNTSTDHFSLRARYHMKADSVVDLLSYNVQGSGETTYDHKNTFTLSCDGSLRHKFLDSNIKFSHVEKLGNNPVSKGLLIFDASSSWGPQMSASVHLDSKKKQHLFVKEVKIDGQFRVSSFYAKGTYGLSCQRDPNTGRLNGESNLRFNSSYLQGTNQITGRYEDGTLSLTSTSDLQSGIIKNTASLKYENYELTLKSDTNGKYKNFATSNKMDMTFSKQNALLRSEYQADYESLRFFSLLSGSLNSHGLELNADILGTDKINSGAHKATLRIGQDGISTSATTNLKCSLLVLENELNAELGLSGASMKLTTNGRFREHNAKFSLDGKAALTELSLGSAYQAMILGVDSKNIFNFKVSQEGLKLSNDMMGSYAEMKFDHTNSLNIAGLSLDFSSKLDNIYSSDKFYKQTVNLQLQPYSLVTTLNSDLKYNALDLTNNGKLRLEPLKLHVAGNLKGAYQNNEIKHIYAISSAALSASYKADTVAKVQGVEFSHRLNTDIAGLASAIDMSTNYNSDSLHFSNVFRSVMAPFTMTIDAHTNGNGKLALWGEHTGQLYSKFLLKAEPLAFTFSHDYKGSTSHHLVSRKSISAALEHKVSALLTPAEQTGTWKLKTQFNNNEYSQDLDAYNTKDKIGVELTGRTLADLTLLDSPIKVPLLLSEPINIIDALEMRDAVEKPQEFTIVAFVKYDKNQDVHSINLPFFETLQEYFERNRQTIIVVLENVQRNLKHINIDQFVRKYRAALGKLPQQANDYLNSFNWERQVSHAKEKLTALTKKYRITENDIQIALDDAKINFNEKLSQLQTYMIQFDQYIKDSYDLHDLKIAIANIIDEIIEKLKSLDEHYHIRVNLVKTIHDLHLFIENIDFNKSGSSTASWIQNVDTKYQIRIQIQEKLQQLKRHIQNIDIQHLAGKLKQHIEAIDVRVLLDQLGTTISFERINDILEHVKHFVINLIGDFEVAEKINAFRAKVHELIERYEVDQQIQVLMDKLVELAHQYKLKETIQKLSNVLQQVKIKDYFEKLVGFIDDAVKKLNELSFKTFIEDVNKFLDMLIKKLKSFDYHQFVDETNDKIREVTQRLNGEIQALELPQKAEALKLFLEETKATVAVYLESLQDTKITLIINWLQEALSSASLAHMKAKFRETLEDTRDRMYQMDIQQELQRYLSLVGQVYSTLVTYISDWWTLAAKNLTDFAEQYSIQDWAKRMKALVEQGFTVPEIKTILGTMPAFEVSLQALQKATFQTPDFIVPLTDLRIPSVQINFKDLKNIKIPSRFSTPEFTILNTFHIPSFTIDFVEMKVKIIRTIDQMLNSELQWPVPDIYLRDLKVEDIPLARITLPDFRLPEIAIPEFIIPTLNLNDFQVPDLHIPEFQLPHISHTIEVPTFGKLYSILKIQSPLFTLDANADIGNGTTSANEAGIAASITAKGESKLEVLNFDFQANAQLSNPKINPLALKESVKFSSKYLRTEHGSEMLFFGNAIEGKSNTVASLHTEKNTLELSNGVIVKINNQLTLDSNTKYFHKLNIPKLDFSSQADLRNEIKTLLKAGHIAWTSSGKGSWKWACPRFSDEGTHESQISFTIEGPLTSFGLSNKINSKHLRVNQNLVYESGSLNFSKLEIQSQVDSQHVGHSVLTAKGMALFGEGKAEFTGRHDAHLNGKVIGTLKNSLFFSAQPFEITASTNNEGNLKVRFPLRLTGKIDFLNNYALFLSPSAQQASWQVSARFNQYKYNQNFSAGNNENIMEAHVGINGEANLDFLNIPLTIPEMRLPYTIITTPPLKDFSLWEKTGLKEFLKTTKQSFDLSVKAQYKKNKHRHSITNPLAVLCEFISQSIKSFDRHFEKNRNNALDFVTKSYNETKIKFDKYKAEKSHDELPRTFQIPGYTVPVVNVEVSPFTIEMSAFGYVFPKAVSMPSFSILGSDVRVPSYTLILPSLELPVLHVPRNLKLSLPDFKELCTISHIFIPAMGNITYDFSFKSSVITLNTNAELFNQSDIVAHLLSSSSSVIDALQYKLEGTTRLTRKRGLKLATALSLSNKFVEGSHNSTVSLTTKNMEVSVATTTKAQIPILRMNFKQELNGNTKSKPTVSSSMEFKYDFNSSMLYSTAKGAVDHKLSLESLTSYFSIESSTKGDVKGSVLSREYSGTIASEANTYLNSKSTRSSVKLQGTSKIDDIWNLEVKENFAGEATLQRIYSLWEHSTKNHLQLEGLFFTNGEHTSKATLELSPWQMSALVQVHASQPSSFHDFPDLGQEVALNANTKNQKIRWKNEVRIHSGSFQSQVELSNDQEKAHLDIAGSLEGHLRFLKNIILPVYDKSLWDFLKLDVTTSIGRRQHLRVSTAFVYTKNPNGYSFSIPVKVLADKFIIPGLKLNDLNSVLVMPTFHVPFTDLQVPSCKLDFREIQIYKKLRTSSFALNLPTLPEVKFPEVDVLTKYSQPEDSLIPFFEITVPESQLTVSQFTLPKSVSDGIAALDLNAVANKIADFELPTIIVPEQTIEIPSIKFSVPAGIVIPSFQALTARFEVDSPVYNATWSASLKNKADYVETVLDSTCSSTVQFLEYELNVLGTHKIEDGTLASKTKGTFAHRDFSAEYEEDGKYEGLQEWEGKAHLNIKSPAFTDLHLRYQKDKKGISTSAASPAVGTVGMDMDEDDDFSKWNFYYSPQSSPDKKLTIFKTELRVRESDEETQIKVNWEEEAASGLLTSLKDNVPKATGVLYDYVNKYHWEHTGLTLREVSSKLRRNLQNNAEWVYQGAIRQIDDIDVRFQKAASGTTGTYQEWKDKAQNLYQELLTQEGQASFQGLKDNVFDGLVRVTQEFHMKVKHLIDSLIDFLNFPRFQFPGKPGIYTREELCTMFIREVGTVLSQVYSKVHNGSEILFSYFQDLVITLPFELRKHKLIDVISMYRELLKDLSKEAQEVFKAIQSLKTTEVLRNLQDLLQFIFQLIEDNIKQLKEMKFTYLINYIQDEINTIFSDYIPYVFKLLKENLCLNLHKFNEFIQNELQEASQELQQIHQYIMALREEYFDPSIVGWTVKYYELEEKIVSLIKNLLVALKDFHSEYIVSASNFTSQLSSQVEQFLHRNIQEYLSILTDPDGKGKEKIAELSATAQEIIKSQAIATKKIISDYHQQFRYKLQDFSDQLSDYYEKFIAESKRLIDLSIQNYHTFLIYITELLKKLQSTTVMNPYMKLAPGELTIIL
Text: To directly examine protein-protein interactions between LDL and ALK1, surface plasmon resonance (SPR) was used with LDL immobilized to the chip and purified fragments of the Fc-tagged ectodomains for LDLR and ALK1 as analytes. […] To test if LDLR and ALK1 compete for binding to LDL, immobilized LDL was pre-bound with ALK1 or LDLR ectodomains, followed by the addition of the other ectodomain. The binding of […] was not altered when the LDL surface was pretreated with ALK1^ecto (FIG. 2C) or if LDL was pretreated with LDLR^ecto (FIG. 2D).

T1 sequence (P37023 22-118): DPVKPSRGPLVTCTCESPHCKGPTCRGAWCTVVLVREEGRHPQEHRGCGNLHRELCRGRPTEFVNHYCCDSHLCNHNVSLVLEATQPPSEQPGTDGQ

- binding result [1]: binds
B1: ApoB100 Site 1 (peptide)
peptide: QDDCTGDED
notes: also called QDDCTGDED

- binding result [1]: binds
B2: ApoB100 Site 4 (peptide)
peptide: RKRGLKLAT

- Kd [2]: 2.45 µM
B3: fluorescein labelled ApoB100 peptide Site 1, GQDDCTGDEDYTYLIL (peptide)
peptide: fluorescein-GQDDCTGDEDYTYLIL-NH2
notes: also called HPLC purified fluorescein labelled peptide

- binding result [3]: binds
B4: ApoB100 Site 1 15mer peptide EQIQDDCTGDEDYTY (peptide)
peptide: EQIQDDCTGDEDYTY

- Kd [4]: 0.007 µM
B5: Fc-tagged ectodomain of LDLR (Fc fusion, not shown: a dimerising Fc or GST)
chain: not shown
notes: extracellular domain; also called LDLR^ecto

- binding result [1]: binds
B6: ApoB100 Site 5 (peptide)
peptide: HRDFSAEYEED
notes: also called HRDFSAEYEED
